From patent US20250361322A1 (ICONIC THERAPEUTICS, published 2025)

Assays:
human Tissue Factor (TF) [1] = target: T1, human Tissue Factor (TF) (human, UniProt P13726 33-295); test: cell-based or functional assay
human Tissue Factor (TF) [2] = target: T1, human Tissue Factor (TF); test: cell-based or functional assay; remark: listed apart in the source
human Tissue Factor (TF) [3] = target: T1, human Tissue Factor (TF); test: flow cytometry, A431 cells; antibody at 100 nM; competitor 20 nM 25A-Alexa488
Experimental: (§1) After another 1 hr incubation on ice, cells were washed, stained with a viability dye, and analyzed by flow cytometry. The Alexa488 fluorescence data from viable cells was summarized using median fluorescence intensity.

human Tissue Factor (TF) [4] = target: T1, human Tissue Factor (TF); test: flow cytometry, A431 cells; antibody at 100 nM; competitor 20 nM 43Ea-Alexa488
Experimental: as §1

human Tissue Factor (TF) [5] = target: T1, human Tissue Factor (TF); test: flow cytometry, MDA-MB-231 cells; competitor 20 nM FVII-Fc-Alexa488; antibody at 83 nM
Experimental: as §1

human Tissue Factor (TF) [6] = target: T1, human Tissue Factor (TF); test: flow cytometry, MDA-MB-231 cells; competitor 20 nM FVII-Fc-Alexa488; antibody at 250 nM
Experimental: as §1

human Tissue Factor (TF) [7] = target: T1, human Tissue Factor (TF); test: flow cytometry, MDA-MB-231 cells; competitor 20 nM FVII-Fc-Alexa488; antibody at 9.25 nM
Experimental: as §1

[8] = target: T2, rTF (rat TF) construct on HEK293 cells (rat, UniProt P42533 29-252); test: flow cytometry (live cell staining), antibody titration 1:3 from 250 nM on HEK293 cells transfected with rTF
T2 construct: not shown: transmembrane/cytoplasmic anchor of the cell-surface construct

human Tissue Factor (TF) [9] = target: T1, human Tissue Factor (TF); test: cell-based or functional assay; remark: listed apart in the source
human Tissue Factor (TF) [10] = target: T1, human Tissue Factor (TF); test: flow cytometry, MDA-MB-231 cells; competitor 20 nM FVII-Fc-Alexa488; antibody at 28 nM
Experimental: as §1

[11] = target: T3, human Tissue Factor (hTF) (human, UniProt P13726 33-295); test: cell-based or functional assay
[12] = target: T3, human Tissue Factor (hTF); test: cell-based or functional assay; remark: listed apart in the source
[13] = target: T4, human Tissue Factor on human TF-positive cells (human, UniProt P13726 33-295); test: flow cytometry, titration of the MC-vc-PAB-MMAE ADC on HCT-116 cells (human TF), 4-parameter fit of MFI
T4 construct: also called hTF; CD142

T2 sequence (P42533 29-252 limits assumed): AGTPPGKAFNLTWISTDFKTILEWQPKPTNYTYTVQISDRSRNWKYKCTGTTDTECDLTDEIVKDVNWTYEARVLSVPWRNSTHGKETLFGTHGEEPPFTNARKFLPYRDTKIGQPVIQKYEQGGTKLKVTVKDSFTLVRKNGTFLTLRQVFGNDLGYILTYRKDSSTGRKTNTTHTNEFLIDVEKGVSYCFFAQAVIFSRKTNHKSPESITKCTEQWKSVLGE

Binder	% IL8 at 2.56 nM antibody (human Tissue Factor (TF) [1])	% IL8 at 6.4 nM antibody (human Tissue Factor (TF) [1])	% IL8 at 16 nM antibody (human Tissue Factor (TF) [1])	% IL8 at 40 nM antibody (human Tissue Factor (TF) [1])	% IL8 at 100 nM antibody (human Tissue Factor (TF) [1])	% GM-CSF at 2.56 nM antibody (human Tissue Factor (TF) [2])	% GM-CSF at 6.4 nM antibody (human Tissue Factor (TF) [2])	% GM-CSF at 16 nM antibody (human Tissue Factor (TF) [2])	% GM-CSF at 40 nM antibody (human Tissue Factor (TF) [2])	% GM-CSF at 100 nM antibody (human Tissue Factor (TF) [2])	% 25A binding (human Tissue Factor (TF) [3])	% 43Ea binding (human Tissue Factor (TF) [4])	% FVIIa (human Tissue Factor (TF) [5])	% FVIIa (human Tissue Factor (TF) [6])	% FVIIa (human Tissue Factor (TF) [7])	% FVIIa (human Tissue Factor (TF) [10])	IC50, cell viability of A431 cells, Primary ADC, Continuous (FIG. 20A) [11]	IC50, cell viability of A431 cells, Primary ADC, 4 hr, followed by washout (FIG. 20B) [12]	IC50, cell viability of A431 cells, Primary ADC, 4 hr, followed by washout, absence of FVIIa (FIG. 21A) [12]	EC50 [13]	further results
25A (antibody, human IgG1, V domains shown, Human IgG1; also called antibody designated 25A; Antibody Clone 25A) VH: QVQLVQSGAEVKKPGASVKVSCKASGYTFDVYGISWVRQAPGQGLEWMGWIAPYNGNTNYAQKLQGRVTMTTDTSTSTAYMELRSLRSDDTAVYYCARDAGTYSPFGYGMDVWGQGTTVTVSS VL: DIQMTQSPSTLSASVGDRVTITCRASQSISSWLAWYQQKPGKAPKLLIYKASSLESGVPSRFSGSGSGTEFTLTISSLQPDDFATYYCQQFQSLPPFTFGGGTKVEIK	43%	11%	10%	8%	9%	57%	24%	22%	19%	22%	3%	1%	97%	98%	100%	–	–	–	–	–	–
25A5-T (antibody, human IgG1, V domains shown, Human IgG1; also called antibody designated 25A5-T) VH: QVQLVQSGAEVKKPGASVKVSCKASGYTFDAYGISWVRQAPGQGLEWMGWIAPYSGNTNYAQKLQGRVTMTTDTSTSTAYMELRSLRSDDTAVYYCARDAGTYSPFGYGMDVWGQGTTVTVSS VL: DIQMTQSPSTLSASVGDRVTITCRASESISNWLAWYQQKPGKAPKLLIYKAYSLEYGVPSRFSGSGSGTEFTLTISSLQPDDFATYYCQQFQKLPPFTFGGGTKVEIK	–	–	–	–	–	–	–	–	–	–	–	–	–	–	–	–	–	–	–	–	binding result [8]: no binding (tested: 250 nM)
54E (antibody, human IgG1, V domains shown, Human IgG1; also called antibody designated 54E) VH: QVQLVQSGAEVKKPGASVKVSCKASGYTFANYYMHWVRQAPGQGLEWMGIINPSGGITVYAQKFQGRVTMTRDTSTSTVYMELSSLRSEDTAVYYCARGGSKVAALAFDIWGQGTMVTVSS VL: DIQMTQSPSSLSASVGDRVTITCQASQDISNSLNWYQQKPGKAPKLLIYDASNLETGVPSRFSGSRSGTDFTFTISSLQPEDIATYYCQQYNFHPLTFGGGTKVEIK	48%	8%	3%	2%	2%	38%	10%	5%	5%	5%	99%	96%	3%	2%	11%	3%	–	–	–	–	% FXa at 12.5 nM antibody (human Tissue Factor (TF) [9]): 53%; % FXa at 25 nM antibody (human Tissue Factor (TF) [9]): 44%; % FXa at 50 nM antibody (human Tissue Factor (TF) [9]): 41%; % FXa at 100 nM antibody (human Tissue Factor (TF) [9]): 42%
anti-TF antibody 54E conjugated to MC-vc-PAB-MMAE (antibody, IgG1, V domains shown, MC-vc-PAB-MMAE on cysteines of the partially reduced antibody (chain and positions not stated), DAR 3-4, Antibody-drug conjugate (primary ADC) of the IgG1 antibody; also called 54E ADC) VH: QVQLVQSGAEVKKPGASVKVSCKASGYTFANYYMHWVRQAPGQGLEWMGIINPSGGITVYAQKFQGRVTMTRDTSTSTVYMELSSLRSEDTAVYYCARGGSKVAALAFDIWGQGTMVTVSS VL: DIQMTQSPSSLSASVGDRVTITCQASQDISNSLNWYQQKPGKAPKLLIYDASNLETGVPSRFSGSRSGTDFTFTISSLQPEDIATYYCQQYNFHPLTFGGGTKVEIK	–	–	–	–	–	–	–	–	–	–	–	–	–	–	–	–	0.07 nM	0.26 nM	0.2 nM	0.33 nM	–
1F (antibody, human IgG1, V domains shown, Human IgG1; also called antibody designated 1F) VH: EVQLLESGGGLVQPGGSLRLSCAASGFTFSDYAMGWVRQAPGKGLEWVSTISGSGGLTYYADSVKGRFTISRDNSKNTLYLQMNSLRAEDTAVYYCAKAPYGYYMDVWGKGTTVTVSS VL: not shown	18%	3%	2%	2%	2%	27%	8%	6%	6%	6%	95%	77%	7%	6%	7%	7%	–	–	–	–	–
1G (antibody, human IgG1, V domains shown, Human IgG1; also called antibody designated 1G) VH: EVQLLESGGGLVQPGGSLRLSCAASGFTFSSYAMAWVRQAPGKGLEWVSAISGSGGLTYYADSVKGRFTISRDNSKNTLYLQMNSLRAEDTAVYYCAKAPYGYYMDVWGKGTTVTVSS VL: not shown	26%	4%	3%	2%	2%	34%	9%	7%	7%	7%	75%	58%	7%	6%	7%	7%	–	–	–	–	% FXa at 12.5 nM antibody (human Tissue Factor (TF) [9]): 55%; % FXa at 25 nM antibody (human Tissue Factor (TF) [9]): 48%; % FXa at 50 nM antibody (human Tissue Factor (TF) [9]): 41%; % FXa at 100 nM antibody (human Tissue Factor (TF) [9]): 41%
39A (antibody, human IgG1, V domains shown, Human IgG1; also called antibody designated 39A) VH: QVQLVQSGAEVKKPGSSVKVSCKASGGTFSSNAIGWVRQAPGQGLEWMGSIIPIIGFANYAQKFQGRVTITADESTSTAYMELSSLRSEDTAVYYCARDSGYYYGASSFGMDVWGQGTTVTVSS VL: EIVMTQSPATLSVSPGERATLSCRASQSVSSNLAWYQQKPGQAPRLLIYGASTRATGIPARFSGSGSGTEFTLTISSLQSEDFAVYYCEQYNNLPLTFGGGTKVEIK	52%	6%	2%	2%	3%	42%	8%	5%	5%	7%	–	–	2%	2%	2%	2%	–	–	–	–	–
anti-TF antibody 39A conjugated to MC-vc-PAB-MMAE (antibody, IgG1, V domains shown, MC-vc-PAB-MMAE on cysteines of the partially reduced antibody (chain and positions not stated), DAR 3-4, Antibody-drug conjugate (primary ADC) of the IgG1 antibody; also called 39A ADC) VH: QVQLVQSGAEVKKPGSSVKVSCKASGGTFSSNAIGWVRQAPGQGLEWMGSIIPIIGFANYAQKFQGRVTITADESTSTAYMELSSLRSEDTAVYYCARDSGYYYGASSFGMDVWGQGTTVTVSS VL: EIVMTQSPATLSVSPGERATLSCRASQSVSSNLAWYQQKPGQAPRLLIYGASTRATGIPARFSGSGSGTEFTLTISSLQSEDFAVYYCEQYNNLPLTFGGGTKVEIK	–	–	–	–	–	–	–	–	–	–	–	–	–	–	–	–	0.05 nM	0.12 nM	0.09 nM	0.1 nM	IC50, cell viability of HPAF-II cells, Primary ADC, Continuous (FIG. 22E) [11]: 0.04 nM; IC50, cell viability of MDA-MB-231 cells, Primary ADC, Continuous (FIG. 22D) [11]: 0.05 nM
anti-TF antibody 29E conjugated to MC-vc-PAB-MMAE (antibody, IgG1, V domains shown, MC-vc-PAB-MMAE on cysteines of the partially reduced antibody (chain and positions not stated), DAR 3-4, Antibody-drug conjugate (primary ADC) of the IgG1 antibody; also called 29E ADC) VH: QVQLVESGGGVVQPGRSLRLSCAASGFTFRSYGMHWVRQAPGKGLEWVAVITYDGINKYYADSVEGRFTISRDNSKNTLYLQMNSLRAEDTAVYYCARDGVYYGVYDYWGQGTLVTVSS VL: not shown	–	–	–	–	–	–	–	–	–	–	–	–	–	–	–	–	0.06 nM	0.2 nM	0.13 nM	0.25 nM	IC50, cell viability of HPAF-II cells, Primary ADC, Continuous (FIG. 22E) [11]: 0.04 nM; IC50, cell viability of MDA-MB-231 cells, Primary ADC, Continuous (FIG. 22D) [11]: 0.07 nM
